Values joined by “and” are separate entries in the source; they are usually repeats but may differ in a detail not shown here. Equal entries are not always repeated.
Key:
[1] = biological target: GST-human CD81-LEL (human) (UniProt P60033); assay: ELISA, plate coated with GST-hCD81-LEL, eE2 detected with anti-human-Fc
[2] = biological target: human CD81 (co-receptor on Huh-7.5 cells) (human) (UniProt P60033); assay: cell-based or functional assay
[3] = biological target: GST-human CD81-LEL (human) (UniProt P60033); assay: ELISA, plate coated with GST-CD81-LEL, 30-fold concentrated HCVpp, detection with 2C1 mAb, GST background subtracted, relative to wt (Cp7) HCVpp

Substance: eE2-C6A (Fc-tagged, cell supernatant) (from UniProt P26660 384-664) (Fc fusion)
- binding capacity relative to wild type eE2 [1]: < 20%

Substance: purified eE2-C17S (from UniProt P26660 384-664)
- blocking of HCVcc (Cp7) infectivity of Huh-7.5 cells [2]: 60% and 70%

Substance: HCVpp carrying E2 C6A (from UniProt P26660 384-750; P26660 192-383)
- percentage of CD81 binding relative to the wild type [3]: 14.2%

Substance: purified eE2-C6A (Fc tag removed) (from UniProt P26660 384-664)
- blocking of HCVcc (Cp7) infectivity of Huh-7.5 cells [2]: 25%

Substance: purified eE2 (Fc tag removed) (from UniProt P26660 384-664)
- blocking of HCVcc (Cp7) infectivity of Huh-7.5 cells [2]: 60% and 70%
